The results in this text go back to US20200148733A1 (Pieris, published 2020).

The target of test [1] is T1, mouse IL-23 (mouse, UniProt Q9EQ14 22-196; P43432 23-335).
T1 construct: also called mIL-23
T1 sequence (looked up) 1: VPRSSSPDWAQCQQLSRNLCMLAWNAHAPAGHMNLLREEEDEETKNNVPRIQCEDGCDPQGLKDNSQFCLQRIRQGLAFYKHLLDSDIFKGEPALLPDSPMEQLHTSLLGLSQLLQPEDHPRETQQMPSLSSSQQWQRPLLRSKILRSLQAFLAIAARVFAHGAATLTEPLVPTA
T1 sequence (looked up) 2: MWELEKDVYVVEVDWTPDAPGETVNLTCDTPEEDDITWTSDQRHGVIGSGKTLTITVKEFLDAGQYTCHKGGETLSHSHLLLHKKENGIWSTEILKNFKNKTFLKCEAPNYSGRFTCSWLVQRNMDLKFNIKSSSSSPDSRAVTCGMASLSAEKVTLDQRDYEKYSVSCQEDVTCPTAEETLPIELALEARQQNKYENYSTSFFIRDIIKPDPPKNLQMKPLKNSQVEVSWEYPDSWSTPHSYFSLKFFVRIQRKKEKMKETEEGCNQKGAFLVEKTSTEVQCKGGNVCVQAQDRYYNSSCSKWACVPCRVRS
The test is described as follows: solution competition ELISA (FIG. 5B). Here is the method:
(§1) In the following detailed experimental protocol, incubation and washing steps were performed as described above in the competition ELISA protocol. A 384-well plate suitable for fluorescence measurements (Greiner FLUOTRAC™ 600, black flat bottom, high-binding) was coated with 20 μl of Neutravidin at a concentration of 5 μg/ml in PBS over night at 4° C. After washing, the Neutravidin-coated wells were blocked with 100 μl PBS-T/BSA for 1h at room temperature.
Background: In an ELISA, binding on a coated surface is turned into a signal by an enzyme label.

In test [2] the target is T2, human IL-12p40 (human, UniProt P29460 23-328).
T2 construct: also called hIL-12p40
T2 sequence (looked up): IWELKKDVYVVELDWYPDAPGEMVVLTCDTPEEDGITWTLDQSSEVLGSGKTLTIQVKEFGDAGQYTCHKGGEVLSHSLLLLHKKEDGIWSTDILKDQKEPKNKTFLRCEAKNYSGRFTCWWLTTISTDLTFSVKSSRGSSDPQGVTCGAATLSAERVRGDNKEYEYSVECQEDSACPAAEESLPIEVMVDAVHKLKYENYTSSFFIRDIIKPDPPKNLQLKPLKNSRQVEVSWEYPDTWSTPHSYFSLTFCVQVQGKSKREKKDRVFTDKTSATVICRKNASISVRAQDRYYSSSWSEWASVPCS
The test is described as follows: solution competition ELISA, 10 nM SEQ ID NO: 9, plate with biotinylated hIL-23. The method, then:
as §1

Test [3] concerns the target T3, human IL-23 (human, UniProt Q9NPF7 20-189; P29460 23-328).
T3 construct: Heterodimer of p19 and p40; in the proliferation assays CAT # HZ-1254, HumanZyme; also called hIL-23; hIL23
T3 sequence (looked up) 1: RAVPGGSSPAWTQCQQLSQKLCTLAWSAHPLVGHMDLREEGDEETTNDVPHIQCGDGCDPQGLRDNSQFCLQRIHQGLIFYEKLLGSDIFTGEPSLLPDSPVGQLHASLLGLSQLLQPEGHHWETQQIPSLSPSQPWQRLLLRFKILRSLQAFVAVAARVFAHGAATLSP
T3 sequence (looked up) 2: T2 sequence (looked up)
The test is described as follows: Surface Plasmon Resonance, legend of FIG. 6B (rounded value of the measurement of the example). The method, then:
(§2) Residual activated groups were quenched with ethanolamine. The reference channels were treated with EDC/NHS following ethanolamine (blank immobilization).
(§3) The binding assay was carried out with a contact time of 300 s, dissociation time of 1200 s and applying a flow rate of 30 μL/min. All measurements were performed at 25° C. […] Prior to the protein measurements three startup cycles were performed for conditioning purposes. Data were evaluated with Biacore T200 Evaluation software (V 1.0). Double referencing was used. The 1:1 Binding model was used to fit the raw data.

Test [4] concerns the target T3, human IL-23. The test is described as follows: SPR (Biacore T200), IL-23 amine-coupled to CM5 chip, mutein in solution, 25 C, 1:1 binding model. Here is the method:
as §2, §3

Test [5] addresses T3, human IL-23. Description: SPR (Biacore T200), hIL-23 immobilized on CM5 chip, mutein injected, fit 1:1 Binding. Here is the method: as §2, §3
On the technique in general: In SPR one partner is held on a chip, and binding of the other changes the refractive index at the surface.

Test [6] concerns the target T3, human IL-23. Description: competition ELISA (ECL): 0.01 nM biotinylated hIL-23 pre-incubated with varied mutein, free hIL-23 captured on coated soluble hIL-23R (competitor). Here is the method: All incubation steps were performed with shaking 300 rpm, and the plate was washed after each incubation step with 80 μl PBS/0.05% Tween 20 for five times using a Biotek ELx405 select CW washer. […] After washing, the receptor-coated wells were blocked with 60 μl PBS-T/BSA for 1 h at room temperature.
After washing, 60 μl MSD Read Buffer T (2×) was added to each well and the plate was read within 15 min.

For test [7], the target named is T3, human IL-23. The test is described as follows: cell-based or functional assay.
Test [8] deals with T1, mouse IL-23. Description: solution competition ELISA (FIG. 5A). Here is the method: as §1
In test [9] the target is T2, human IL-12p40. The test is described as follows: solution competition ELISA, 1 nM SEQ ID NO: 10, plate with biotinylated hIL-23. The method, then:
as §1

Test [10] deals with T3, human IL-23. The test is described as follows: Surface Plasmon Resonance, legend of FIG. 6C (rounded value of the measurement of the example). Here is the method: as §2, §3

B1: lipocalin mutein SEQ ID NO: 9 (designed binder)
chain: QDSTSDLIPAPPLSKVPLQQNFQDNQFHGKWYVVGMAGNLMLREDKDPTKMSATIYELKEDKSYNVTWVDFRFKKCKYQIGTFVPGSQPGEFTLGGIKSMPGMTSFLVRVVSTNYNQHAMVFFKYVYQNREYFEITLYGRTKELTSELKENFIRFSKSLGLPENHIVFPVPIDQCIDG
notes: Human NGAL (lipocalin 2) mutein specific for IL-23p19
As usually defined, the Kd is the equilibrium constant for the complex coming apart. One may read the koff as the first-order rate constant of dissociation. Read a low koff as a long-lived complex. The kon is the rate constant with which the complex forms. Read a low kon as slower complex formation. What is called IC50 is the concentration at which inhibition is half-maximal. Higher therefore signals lower potency. On to B1, for which the figures for the binding result with mouse IL-23 [1] and with human IL-12p40 [2] were “binds” and “no binding (tested: ligand up to 1000 nM)”, respectively. The Kd with human IL-23 [3] and with human IL-23 [4] was 135 nM in each case. For the same molecule, the koff with human IL-23 [4] and with human IL-23 [5] was 0.00063 s⁻¹ in each case. Besides, the kon with human IL-23 [4] is 4700 M⁻¹ s⁻¹; with human IL-23 [5], 4650 M⁻¹ s⁻¹. In the test with human IL-23 [6], this molecule gave an IC50 of 119 nM.

B2: lipocalin mutein SEQ ID NO: 10 (designed binder)
chain: QDSTSDLIPAPPLSKVPLQQNFQDNQFHGKWYVVGLAGNTILREDKDPDKMEATIYELKEDKSYNVTSVDFIMKKCWYFITTFVPGSQPGEFTLGHIKSMPGMTSFLVRVVSTNYNQHAMVFFKYVYQNREFFEITLYGRTKELTSELKENFIRFSKSLGLPENHIVFPVPIDQCIDG
notes: as for B1
On to B2, for which, in the test with human IL-23 [7], the “EC50 [nM] AVERAGE, hIL-23-induced proliferation of Ba/F3 cells expressing hIL-23R and hIL-12Rβ1” value is 332 nM; the “EC50 [nM] Exp 1, hIL-23-induced proliferation of Ba/F3 cells expressing hIL-23R and hIL-12Rβ1” value is 515 nM; the “EC50 [nM] Exp 2, hIL-23-induced proliferation of Ba/F3 cells expressing hIL-23R and hIL-12Rβ1” value was found to be 199 nM; the “EC50 [nM] Exp 3, hIL-23-induced proliferation of Ba/F3 cells expressing hIL-23R and hIL-12Rβ1” value amounted to 316 nM. The “EC50 [nM] Exp 4, hIL-23-induced proliferation of Ba/F3 cells expressing hIL-23R and hIL-12Rβ1” value with human IL-23 [7] was determined as 296 nM. For the same molecule, in the test with mouse IL-23 [8], the binding result is reported as “binds”. Moreover, the binding result with human IL-12p40 [9] is “no binding (tested: ligand up to 1000 nM)”. In the test with human IL-23 [10], the Kd came to 11 nM. In the test with human IL-23 [4], this molecule came in with a Kd of 11.5 nM, a koff of 0.00048 s⁻¹ and a kon of 42000 M⁻¹ s⁻¹. In the test with human IL-23 [5], the koff was 0.000598 s⁻¹ and the kon was 36300 M⁻¹ s⁻¹. Moreover, the 50% inhibitory concentration (IC50) with human IL-23 [6] was determined as 1.9 nM.
